From US20130315910A1 (Xencor, published 2013) come the findings set out here.

What all share (experiment): SPR
Assay [1] concerns the target T1, human FcγRIIb receptor protein (R&D Systems) (human, UniProt P31994 46-217).
T1 construct: Bought protein injected over captured antibody in Biacore; also called CD32b
T1 sequence (looked up): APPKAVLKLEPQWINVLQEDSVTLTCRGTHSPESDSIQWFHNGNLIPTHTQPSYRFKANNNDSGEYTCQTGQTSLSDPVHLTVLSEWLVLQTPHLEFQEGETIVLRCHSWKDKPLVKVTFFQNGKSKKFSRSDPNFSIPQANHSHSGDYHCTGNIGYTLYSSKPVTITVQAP

Another assay addresses T2, mFcγRIIb (Mus musculus, UniProt P08101).
T2 construct: extracellular region, C-terminal His- and GST-tag; also called mouse FcγRII
T2 sequence (receptor extracellular region, looked up): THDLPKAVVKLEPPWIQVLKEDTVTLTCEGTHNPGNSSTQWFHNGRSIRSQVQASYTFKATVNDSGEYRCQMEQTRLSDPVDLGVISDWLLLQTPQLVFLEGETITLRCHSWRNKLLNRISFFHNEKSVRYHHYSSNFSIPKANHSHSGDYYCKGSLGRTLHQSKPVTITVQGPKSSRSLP
The procedure: (§1) Variants were screened for receptor affinity using Biacore™ technology, also referred to as Biacore herein, a surface plasmon resonance (SPR) based technology for studying biomolecular interactions in real time. SPR measurements were performed using a Biacore 3000 instrument (Biacore, Piscataway, N.J.). A protein A/G (Pierce Biotechnology) CM5 biosensor chip (Biacore) was generated using a standard primary amine coupling protocol. All measurements were performed using HBS-EP buffer (10 mM HEPES pH 7.4, 0.15 M NaCl, 3 mM EDTA, 0.005% vol/vol surfactant P20, Biacore). Antibodies at 20 nM or 50 nM in HBS-EP buffer were immobilized on the protein A/G surface and FcγRs were injected. After each cycle, the surface was regenerated by injecting glycine buffer (10 mM, pH 1.5). Data were processed by zeroing time and response before the injection of FcγR and by subtracting appropriate nonspecific signals (response of reference channel and injection of running buffer). Kinetic analyses were performed by global fitting of binding data with a 1:1 Langmuir binding model using BIAevaluation software (Biacore).
(§2) Variant antibodies were tested for their affinity to mouse or cynologous monkey FcγRs using Biacore SPR as described above. Specifically, antibodies were first immobilized on a protein A/G chip to high density, and then followed by injections of the extracellular domain of the mouse or cynologous monkey FcγR of interest. Both association and dissociation phases were tracked in real time using the Biacore technology.

For a further assay, the target named is T3, cynoFcγRIIb (Macaca fascicularis, UniProt A0A140HDP4).
T3 construct: extracellular region, C-terminal His- and GST-tag; also called cynomolgus monkey FcγRIIb
T3 sequence (receptor extracellular region): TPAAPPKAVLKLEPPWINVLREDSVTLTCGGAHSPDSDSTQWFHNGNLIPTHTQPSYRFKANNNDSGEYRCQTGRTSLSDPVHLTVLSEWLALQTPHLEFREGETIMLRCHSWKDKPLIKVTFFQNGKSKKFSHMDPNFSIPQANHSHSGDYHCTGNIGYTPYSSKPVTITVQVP
Here is the method: as §1, §2

B1: L234W/L328Y/I332E (antibody, human IgG1, kappa)
heavy: EVQLVESGGGLVKPGGSLKLSCAASGYTFTSYVMHWVRQAPGKGLEWIGYINPYNDGTKYNEKFQGRVTISSDKSISTAYMELSSLRSEDTAMYYCARGTYYYGTRVFDYWGQGTLVTVSSASTKGPSVFPLAPSSKSTSGGTAALGCLVKDYFPEPVTVSWNSGALTSGVHTFPAVLQSSGLYSLSSVVTVPSSSLGTQTYICNVNHKPSNTKVDKKVEPKSCDKTHTCPPCPAPEWLGGPSVFLFPPKPKDTLMISRTPEVTCVVVDVSHEDPEVKFNWYVDGVEVHNAKTKPREEQYNSTYRVVSVLTVLHQDWLNGKEYKCKVSNKAYPAPEEKTISKAKGQPREPQVYTLPPSREEMTKNQVSLTCLVKGFYPSDIAVEWESNGQPENNYKTTPPVLDSDGSFFLYSKLTVDKSRWQQGNVFSCSVMHEALHNHYTQKSLSLSPGK
light: DIVMTQSPATLSLSPGERATLSCRSSKSLQNVNGNTYLYWFQQKPGQSPQLLIYRMSNLNSGVPDRFSGSGSGTEFTLTISSLEPEDFAVYYCMQHLEYPITFGAGTKLEIKRTVAAPSVFIFPPSDEQLKSGTASVVCLLNNFYPREAKVQWKVDNALQSGNSQESVTEQDSKDSTYSLSSTLTLSKADYEKHKVYACEVTHQGLSSPVTKSFNRGEC
notes: HuAM4G7 anti-CD19 IgG1 (m1) with these Fc substitutions, EU index; copies: 2 + 2
With B1, in assay [1], the “Fold vs WT IgG1” value worked out at 6.32 fold and the Kd worked out at 232 nM. Also, the “Fold vs WT IgG1 (Kd)” value with mFcγRIIb was 0.617 fold. In addition, the “Fold vs WT IgG1 (Kd)” value in the assay with cynoFcγRIIb amounted to 2.04 fold.

B2: P331S (antibody, human IgG1, kappa)
heavy: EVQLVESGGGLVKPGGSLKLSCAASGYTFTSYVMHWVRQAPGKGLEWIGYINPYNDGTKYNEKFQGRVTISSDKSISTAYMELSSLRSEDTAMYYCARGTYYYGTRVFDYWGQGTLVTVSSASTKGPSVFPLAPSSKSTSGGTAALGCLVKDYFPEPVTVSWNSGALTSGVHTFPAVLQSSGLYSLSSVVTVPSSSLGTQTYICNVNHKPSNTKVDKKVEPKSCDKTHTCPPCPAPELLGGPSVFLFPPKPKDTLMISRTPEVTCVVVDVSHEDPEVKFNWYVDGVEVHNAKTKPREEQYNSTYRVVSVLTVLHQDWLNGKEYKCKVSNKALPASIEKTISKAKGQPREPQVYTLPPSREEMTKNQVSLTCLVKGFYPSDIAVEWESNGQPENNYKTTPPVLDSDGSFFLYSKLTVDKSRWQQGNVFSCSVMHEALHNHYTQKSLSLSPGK
light: DIVMTQSPATLSLSPGERATLSCRSSKSLQNVNGNTYLYWFQQKPGQSPQLLIYRMSNLNSGVPDRFSGSGSGTEFTLTISSLEPEDFAVYYCMQHLEYPITFGAGTKLEIKRTVAAPSVFIFPPSDEQLKSGTASVVCLLNNFYPREAKVQWKVDNALQSGNSQESVTEQDSKDSTYSLSSTLTLSKADYEKHKVYACEVTHQGLSSPVTKSFNRGEC
notes: HuAM4G7 anti-CD19 IgG1 (m1) with this Fc substitution, EU index; copies: 2 + 2
With B2, in assay [1], the “Fold vs WT IgG1” value was found to be 0.0372 fold and the Kd stood at 39400 nM. Besides, the “Fold vs WT IgG1 (Kd)” value with mFcγRIIb worked out at 0.085 fold. The “Fold vs WT IgG1 (Kd)” value in the assay with cynoFcγRIIb worked out at 0.25 fold.

B3: L235F/L328Y/I332E (antibody, human IgG1, kappa)
heavy: EVQLVESGGGLVKPGGSLKLSCAASGYTFTSYVMHWVRQAPGKGLEWIGYINPYNDGTKYNEKFQGRVTISSDKSISTAYMELSSLRSEDTAMYYCARGTYYYGTRVFDYWGQGTLVTVSSASTKGPSVFPLAPSSKSTSGGTAALGCLVKDYFPEPVTVSWNSGALTSGVHTFPAVLQSSGLYSLSSVVTVPSSSLGTQTYICNVNHKPSNTKVDKKVEPKSCDKTHTCPPCPAPELFGGPSVFLFPPKPKDTLMISRTPEVTCVVVDVSHEDPEVKFNWYVDGVEVHNAKTKPREEQYNSTYRVVSVLTVLHQDWLNGKEYKCKVSNKAYPAPEEKTISKAKGQPREPQVYTLPPSREEMTKNQVSLTCLVKGFYPSDIAVEWESNGQPENNYKTTPPVLDSDGSFFLYSKLTVDKSRWQQGNVFSCSVMHEALHNHYTQKSLSLSPGK
light: DIVMTQSPATLSLSPGERATLSCRSSKSLQNVNGNTYLYWFQQKPGQSPQLLIYRMSNLNSGVPDRFSGSGSGTEFTLTISSLEPEDFAVYYCMQHLEYPITFGAGTKLEIKRTVAAPSVFIFPPSDEQLKSGTASVVCLLNNFYPREAKVQWKVDNALQSGNSQESVTEQDSKDSTYSLSSTLTLSKADYEKHKVYACEVTHQGLSSPVTKSFNRGEC
notes: as for B1
In the case of B3, in assay [1], the “Fold vs WT IgG1” value was 3.31 fold. This molecule also yielded a Kd in assay [1] of 443 nM. For the same molecule, the “Fold vs WT IgG1 (Kd)” value was 0.843 fold with mFcγRIIb and 4.11 fold with cynoFcγRIIb.

B4: L234W/S239D/L328Y (antibody, human IgG1, kappa)
heavy: EVQLVESGGGLVKPGGSLKLSCAASGYTFTSYVMHWVRQAPGKGLEWIGYINPYNDGTKYNEKFQGRVTISSDKSISTAYMELSSLRSEDTAMYYCARGTYYYGTRVFDYWGQGTLVTVSSASTKGPSVFPLAPSSKSTSGGTAALGCLVKDYFPEPVTVSWNSGALTSGVHTFPAVLQSSGLYSLSSVVTVPSSSLGTQTYICNVNHKPSNTKVDKKVEPKSCDKTHTCPPCPAPEWLGGPDVFLFPPKPKDTLMISRTPEVTCVVVDVSHEDPEVKFNWYVDGVEVHNAKTKPREEQYNSTYRVVSVLTVLHQDWLNGKEYKCKVSNKAYPAPIEKTISKAKGQPREPQVYTLPPSREEMTKNQVSLTCLVKGFYPSDIAVEWESNGQPENNYKTTPPVLDSDGSFFLYSKLTVDKSRWQQGNVFSCSVMHEALHNHYTQKSLSLSPGK
light: DIVMTQSPATLSLSPGERATLSCRSSKSLQNVNGNTYLYWFQQKPGQSPQLLIYRMSNLNSGVPDRFSGSGSGTEFTLTISSLEPEDFAVYYCMQHLEYPITFGAGTKLEIKRTVAAPSVFIFPPSDEQLKSGTASVVCLLNNFYPREAKVQWKVDNALQSGNSQESVTEQDSKDSTYSLSSTLTLSKADYEKHKVYACEVTHQGLSSPVTKSFNRGEC
notes: as for B1
Regarding B4, in assay [1], the “Fold vs WT IgG1” value worked out at 32.8 fold and the Kd turned out to be 44.8 nM. Moreover, the “Fold vs WT IgG1 (Kd)” value in the assay with mFcγRIIb came out at 44.1 fold. In addition, the “Fold vs WT IgG1 (Kd)” value in the assay with cynoFcγRIIb was 5.92 fold.

B5: L235F/H268D/L328Y (antibody, human IgG1, kappa)
heavy: EVQLVESGGGLVKPGGSLKLSCAASGYTFTSYVMHWVRQAPGKGLEWIGYINPYNDGTKYNEKFQGRVTISSDKSISTAYMELSSLRSEDTAMYYCARGTYYYGTRVFDYWGQGTLVTVSSASTKGPSVFPLAPSSKSTSGGTAALGCLVKDYFPEPVTVSWNSGALTSGVHTFPAVLQSSGLYSLSSVVTVPSSSLGTQTYICNVNHKPSNTKVDKKVEPKSCDKTHTCPPCPAPELFGGPSVFLFPPKPKDTLMISRTPEVTCVVVDVSDEDPEVKFNWYVDGVEVHNAKTKPREEQYNSTYRVVSVLTVLHQDWLNGKEYKCKVSNKAYPAPIEKTISKAKGQPREPQVYTLPPSREEMTKNQVSLTCLVKGFYPSDIAVEWESNGQPENNYKTTPPVLDSDGSFFLYSKLTVDKSRWQQGNVFSCSVMHEALHNHYTQKSLSLSPGK
light: DIVMTQSPATLSLSPGERATLSCRSSKSLQNVNGNTYLYWFQQKPGQSPQLLIYRMSNLNSGVPDRFSGSGSGTEFTLTISSLEPEDFAVYYCMQHLEYPITFGAGTKLEIKRTVAAPSVFIFPPSDEQLKSGTASVVCLLNNFYPREAKVQWKVDNALQSGNSQESVTEQDSKDSTYSLSSTLTLSKADYEKHKVYACEVTHQGLSSPVTKSFNRGEC
notes: as for B1
Regarding B5, in assay [1], the “Fold vs WT IgG1” value stood at 3.97 fold and the Kd is 370 nM. The “Fold vs WT IgG1 (Kd)” value with mFcγRIIb worked out at 6.82 fold. For the same molecule, in the assay with cynoFcγRIIb, the “Fold vs WT IgG1 (Kd)” value came to 3.17 fold.

B6: L328Y/I332E (antibody, human IgG1, kappa)
heavy: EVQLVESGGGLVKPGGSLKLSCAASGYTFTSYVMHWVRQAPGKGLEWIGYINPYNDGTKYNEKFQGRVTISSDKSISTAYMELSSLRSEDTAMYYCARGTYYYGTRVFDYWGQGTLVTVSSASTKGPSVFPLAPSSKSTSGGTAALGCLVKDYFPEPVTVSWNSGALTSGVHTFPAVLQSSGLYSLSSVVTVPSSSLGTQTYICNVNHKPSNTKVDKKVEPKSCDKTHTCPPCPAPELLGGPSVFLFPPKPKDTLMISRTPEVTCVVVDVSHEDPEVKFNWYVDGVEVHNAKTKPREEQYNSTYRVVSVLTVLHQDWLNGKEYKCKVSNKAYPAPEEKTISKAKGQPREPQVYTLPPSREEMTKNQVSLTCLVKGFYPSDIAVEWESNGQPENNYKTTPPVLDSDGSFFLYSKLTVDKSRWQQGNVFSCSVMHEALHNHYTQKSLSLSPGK
light: DIVMTQSPATLSLSPGERATLSCRSSKSLQNVNGNTYLYWFQQKPGQSPQLLIYRMSNLNSGVPDRFSGSGSGTEFTLTISSLEPEDFAVYYCMQHLEYPITFGAGTKLEIKRTVAAPSVFIFPPSDEQLKSGTASVVCLLNNFYPREAKVQWKVDNALQSGNSQESVTEQDSKDSTYSLSSTLTLSKADYEKHKVYACEVTHQGLSSPVTKSFNRGEC
notes: as for B1
Regarding B6, in assay [1], the “Fold vs WT IgG1” value was 2.08 fold and the dissociation constant Kd amounted to 705 nM. Moreover, the “Fold vs WT IgG1 (Kd)” value in the assay with mFcγRIIb was 0.434 fold. In addition, the “Fold vs WT IgG1 (Kd)” value with cynoFcγRIIb amounted to 4.6 fold.

B7: L235F/S239D/L328Y (antibody, human IgG1, kappa)
heavy: EVQLVESGGGLVKPGGSLKLSCAASGYTFTSYVMHWVRQAPGKGLEWIGYINPYNDGTKYNEKFQGRVTISSDKSISTAYMELSSLRSEDTAMYYCARGTYYYGTRVFDYWGQGTLVTVSSASTKGPSVFPLAPSSKSTSGGTAALGCLVKDYFPEPVTVSWNSGALTSGVHTFPAVLQSSGLYSLSSVVTVPSSSLGTQTYICNVNHKPSNTKVDKKVEPKSCDKTHTCPPCPAPELFGGPDVFLFPPKPKDTLMISRTPEVTCVVVDVSHEDPEVKFNWYVDGVEVHNAKTKPREEQYNSTYRVVSVLTVLHQDWLNGKEYKCKVSNKAYPAPIEKTISKAKGQPREPQVYTLPPSREEMTKNQVSLTCLVKGFYPSDIAVEWESNGQPENNYKTTPPVLDSDGSFFLYSKLTVDKSRWQQGNVFSCSVMHEALHNHYTQKSLSLSPGK
light: DIVMTQSPATLSLSPGERATLSCRSSKSLQNVNGNTYLYWFQQKPGQSPQLLIYRMSNLNSGVPDRFSGSGSGTEFTLTISSLEPEDFAVYYCMQHLEYPITFGAGTKLEIKRTVAAPSVFIFPPSDEQLKSGTASVVCLLNNFYPREAKVQWKVDNALQSGNSQESVTEQDSKDSTYSLSSTLTLSKADYEKHKVYACEVTHQGLSSPVTKSFNRGEC
notes: as for B1
In the case of B7, in assay [1], the “Fold vs WT IgG1” value is 6.82 fold and binding was put at a Kd of 215 nM. Moreover, the “Fold vs WT IgG1 (Kd)” value with mFcγRIIb was found to be 31.2 fold. In the assay with cynoFcγRIIb, the “Fold vs WT IgG1 (Kd)” value turned out to be 5.2 fold.

A word on the Kd: it is the free concentration of one partner at which half of the binding sites on the other are occupied at equilibrium, for simple one-to-one binding. The low end stands for higher affinity, the high end for lower affinity.
